According to the supplement of paper PMC10126150:
± gives the standard deviation of the averaged measurements.

System: ATP
Test: switch fluorescence ratio, 500 uM ATP over buffer (Cy3 cluster intensity, sum of 5 cycles each) (fold (ratio)); higher = stronger signal-on switching upon ATP binding; sequences stand for … in TCGTCGGCAGCGTCAGATGTGTATAAGAGACAGTTTTTTTTTTTTTTTTTTTTTTTTT…TC
Conditions: aptamer strand: ATP DNA aptamer (quencher-CACCTGGGGGAGTATTGCGGAGGAAGG + anchor), 100 nM annealed; ATP concentration: 500 uM
Method in brief: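 Cy3-labelled switching-strand clusters on a modified Illumina MiSeq flow-cell were annealed to 100 nM quencher-labelled ATP aptamer and imaged first in selection buffer, then after 15 min with 500 uM ATP at 22 °C. NaOH stripping and re-annealing separated each of five buffer/ATP cycles, and clusters outside 100-1000 RFU were excluded. The fluorescence ratio sums target-cycle Cy3 intensity over buffer-cycle Cy3 intensity per cluster and averages it per switch-domain sequence.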
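Also: ATP exposure 15 min at 22 °C before imaging.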

Sequence | switch fluorescence ratio
GGATATCTGG | 1.014 ± 0.0053
GGATATGAGG | 1 ± 0.018
GGATATGTGT | 0.991 ± 0.016
GGATATTTGG | 0.992 ± 0.029
GGATCCACGG | 1.012 ± 0.005
GGATCCTTTC | 1.23 ± 0.083
GGATCGCGAA | 0.978 ± 0.011
GGATCGGGGG | 1.03 ± 0.05
GGATCGTGGG | 0.995 ± 0.03
GGATGAAGGA | 0.978 ± 0.038
GGATGAATTG | 1.01 ± 0.018
GGATGATTTG | 0.968 ± 0.025
GGATGCGCAG | 0.987 ± 0.016
GGATGCGGCC | 0.992 ± 0.023
GGATGGGATG | 0.989 ± 0.04
GGATGGGGTG | 1.01 ± 0.053
GGATGTCTAG | 0.9885 ± 0.0037
GGATGTGGGA | 0.981 ± 0.017
GGATGTGGGG | 0.969 ± 0.034
GGATGTTAGT | 1 ± 0.008
GGATGTTTGG | 0.975 ± 0.014
GGATTAAATG | 0.982 ± 0.037
GGATTAATCG | 1 ± 0.015
GGATTACAGT | 0.997 ± 0.014
GGATTAGGGG | 0.998 ± 0.022
GGATTAGTCA | 0.9973 ± 0.0047

Sequence | switch fluorescence ratio
GGATTATATT | 1.0205 ± 0.00083
GGATTCAGGC | 0.981 ± 0.027
GGATTCCGGC | 0.981 ± 0.053
GGATTCGGTG | 0.976 ± 0.02
GGATTGAAGT | 0.981 ± 0.023
GGATTGAGGC | 0.968 ± 0.0046
GGATTGAGGT | 1.02 ± 0.032
GGATTGATTA | 1.01 ± 0.032
GGATTGATTT | 0.993 ± 0.038
GGATTGCCGA | 1.01 ± 0.043
GGATTGGCGG | 0.983 ± 0.039
GGATTGTTTG | 1.009 ± 0.01
GGATTTAATA | 1.02 ± 0.03
GGATTTAATG | 0.9523 ± 0.0057
GGATTTATAA | 0.9961 ± 0.0011
GGATTTTATC | 0.992 ± 0.013
GGATTTTGTT | 0.998 ± 0.031
GGATTTTTAT | 0.999 ± 0.028
GGATTTTTCA | 0.985 ± 0.013
GGATTTTTGG | 0.989 ± 0.036
GGCAAAGGAC | 1.08 ± 0.027
GGCAAATCGG | 0.995 ± 0.014
GGCAACAGCG | 1.039 ± 0.003
GGCAACGCGT | 1 ± 0.025
GGCAATATGT | 1.24 ± 0.077
GGCAATCCCA | 1.03 ± 0.012

Sequence | switch fluorescence ratio
GGCAATTATG | 1.02 ± 0.025
GGCAATTTTT | 0.992 ± 0.049
GGCACTGGAT | 1.02 ± 0.02
GGCACTGGGG | 1.02 ± 0.02
GGCAGCAAGG | 1.084 ± 0.0029
GGCAGCGGGG | 0.991 ± 0.019
GGCAGGAGGG | 1.11 ± 0.22
GGCAGGCCAT | 1.059 ± 0.0074
GGCAGGGGGA | 1.01 ± 0.015
GGCAGGTTGG | 0.952 ± 0.014
GGCAGTTTTT | 0.985 ± 0.02
GGCATAAGGG | 1.03 ± 0.05
GGCATACCGT | 0.997 ± 0.0052
GGCATAGGGG | 1.01 ± 0.026
GGCATCGCCG | 0.954 ± 0.013
GGCATCGTCG | 0.97 ± 0.025
GGCATTAAAG | 0.9841 ± 0.0078
GGCATTGTCT | 1.03 ± 0.023
GGCATTTTTT | 1 ± 0.031
GGCCAATCAG | 1.018 ± 0.0024
GGCCACGCTC | 1.04 ± 0.043
GGCCCCCGGC | 0.969 ± 0.026
GGCCCCGGCG | 1 ± 0.015
GGCCCCTTTT | 1.021 ± 0.0053
GGCCCGGCAC | 1.01 ± 0.013
GGCCCGGGGT | 1.44 ± 0.37

Sequence | switch fluorescence ratio
GGCCCGTCGG | 1.03 ± 0.0047
GGCCCTAGTA | 1 ± 0.059
GGCCCTCTGA | 1.05 ± 0.018
GGCCCTGAGC | 0.9991 ± 0.0025
GGCCGACTTG | 1 ± 0.043
GGCCGCAGGT | 0.987 ± 0.023
GGCCGCCGTC | 1 ± 0.019
GGCCGGCAAA | 1.01 ± 0.037
GGCCGGGGGG | 1.02 ± 0.058
GGCCGGGGGT | 1.25 ± 0.4
GGCCGGGGTG | 1.18 ± 0.032
GGCCTAAATA | 0.998 ± 0.014
GGCCTAATAG | 1 ± 0.034
GGCCTATGTC | 1.04 ± 0.011
GGCCTCAAAT | 1.01 ± 0.037
GGCCTCCTGT | 1.02 ± 0.033
GGCCTCGCCT | 0.98511 ± 9.3e-05
GGCCTCGTAC | 1.1 ± 0.02
GGCCTCTGCT | 1.02 ± 0.02
GGCCTGGGAC | 1.01 ± 0.027
GGCCTGGGAG | 0.992 ± 0.011
GGCCTTCGGG | 0.972 ± 0.053
GGCGAAAGGA | 1 ± 0.041
GGCGAAAGGG | 1.02 ± 0.026
GGCGAAGTCG | 0.999 ± 0.023
GGCGAGGGCT | 0.982 ± 0.051

Sequence | switch fluorescence ratio
GGCGAGTTAC | 1.021 ± 0.0012
GGCGATACTA | 1.92 ± 0.11
GGCGATCGCG | 1.02 ± 0.04
GGCGCAGGAG | 1.092 ± 0.0082
GGCGCCGCGG | 0.9937 ± 0.0092
GGCGCCGCTG | 1.016 ± 0.003
GGCGCCGGAA | 0.98 ± 0.031
GGCGCGTGTC | 0.9945 ± 0.009
GGCGCTAGCG | 0.993 ± 0.068
GGCGCTGAGT | 1.017 ± 0.01
GGCGGACAGG | 1.038 ± 0.0062
GGCGGAGAGG | 1.08 ± 0.022
GGCGGAGGGG | 0.998 ± 0.024
GGCGGAGTAT | 1 ± 0.017
GGCGGCAGGG | 1 ± 0.013
GGCGGGATTG | 0.959 ± 0.041
GGCGGGCGCT | 0.993 ± 0.032
GGCGGGGGTC | 1.01 ± 0.029
GGCGGTATAG | 1.02 ± 0.013
GGCGGTGTGG | 0.981 ± 0.023
GGCGTAGCTT | 1.01 ± 0.051
GGCGTAGTTA | 0.985 ± 0.018
GGCGTCAAGG | 0.996 ± 0.026
GGCGTCTTTG | 1.019 ± 0.0091
GGCGTTGGGT | 0.9929 ± 0.0096
GGCGTTTTAG | 0.998 ± 0.034

Sequence | switch fluorescence ratio
GGCTAACGAC | 1.063 ± 0.0021
GGCTAAGGTC | 1 ± 0.044
GGCTAAGGTT | 0.997 ± 0.015
GGCTAATGGG | 1.021 ± 0.0043
GGCTAATTTT | 1.02 ± 0.011
GGCTACGTTT | 1.05 ± 0.084
GGCTAGGTGC | 1.24 ± 0.058
GGCTATAATA | 1.01 ± 0.034
GGCTATGGGT | 1.02 ± 0.024
GGCTATTGAT | 1.004 ± 0.0073
GGCTATTGCG | 0.995 ± 0.016
GGCTCAGGGC | 0.9793 ± 0.0024
GGCTCATCA | 1.01 ± 0.023
GGCTCCAACG | 1.06 ± 0.013
GGCTCCGGCG | 1.04 ± 0.032
GGCTCCGGTT | 1.19 ± 0.084
GGCTCTGATG | 1.01 ± 0.011
GGCTGAAAAA | 0.915 ± 0.056
GGCTGAACGT | 1 ± 0.012
GGCTGAAGGG | 0.996 ± 0.014
GGCTGAGCCT | 0.991 ± 0.038
GGCTGAGGGG | 0.972 ± 0.042
GGCTGCATGC | 1.08 ± 0.023
